Assay results: patent US7875275B2, “Use of Bridge-1 and activators and inhibitors thereof in the treatment of insulin deficiency and diabetes” (The General Hospital Corporation, priority 2004, dated 2011)

Assays:
Gal4-Bridge-1 = target: T1, Gal4-Bridge-1 (UniProt P04386+Q9WTV5); experiment: Gal4-Bridge-1 transcriptional activation of Gal4-CAT reporter in BHK cells; format: cell-based, rat; settings: 0-3 μg pCMV-p300 expression vector
T1 construct: excision of full-length rat Bridge-1 cDNA from the previously reported Gal4-Bridge-1 (pM-Bridge-1) vector; expressed in transfected cells; host or cells: BHK cells (BHK-21 C-13), transient transfection
T1 sequence (P04386+Q9WTV5 fused): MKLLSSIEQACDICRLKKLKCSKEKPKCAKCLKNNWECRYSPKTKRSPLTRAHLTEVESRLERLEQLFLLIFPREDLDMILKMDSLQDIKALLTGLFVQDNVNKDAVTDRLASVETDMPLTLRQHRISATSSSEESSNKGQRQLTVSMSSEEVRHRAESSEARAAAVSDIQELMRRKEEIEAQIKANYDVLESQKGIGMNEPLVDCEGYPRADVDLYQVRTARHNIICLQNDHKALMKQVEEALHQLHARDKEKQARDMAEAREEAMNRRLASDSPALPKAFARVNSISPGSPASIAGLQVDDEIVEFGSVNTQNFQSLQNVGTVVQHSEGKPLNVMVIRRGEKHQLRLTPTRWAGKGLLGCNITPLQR
Procedure: FIG. 17 (a-d). The coactivator Bridge-1 interacts with multiple domains of p300. (a) Trichostatin A increases transcriptional activation by Bridge-1. BHK cells were transfected in duplicate with 1.5 μg Gal4-Bridge-1 or empty Gal4 expression vector, 3.25 μg pBluescript, and 250 ng of a Gal4-luciferase reporter and treated with vehicle (0), 2, or 4 ng/mL trichostatin A for 24 hours. Results shown are the mean+/−SEM relative luciferase activity of Gal4-Bridge-1 normalized to the empty Gal4 expression vector (n=3-5 transfections). (b) p300 increases the transcriptional activation by Bridge-1. […]
(§1) Cell culture and transfections. […] Transfections were conducted with Lipofectamine or Lipofectamine 2000 (Invitrogen Life Technologies) according to published methods (Thomas, M. K., et al., Molec. Cell. Biol. 19:8492-8504 (1999). Yeast transcriptional activation assays were conducted as previously reported (Thomas, M. K., et al., supra; Golemis, E. A., et al., Current Protocols in Molecular Biology, Ausubel, F. M., et al., eds., John Wiley and Sons, pp. 13.14.1-13.14.17 (1994)) with quantitative LexA-operator responsive beta-galactosidase reporter assays as outlined by the manufacturer (BD Biosciences Clontech, Palo Alto, Calif.).

[1] = target: T2, Bridge-1 (Gal4 DBD-Bridge-1) (Rattus norvegicus, UniProt Q9WTV5); experiment: Gal4-Bridge-1 transactivation assay in BHK cells (Gal4-luciferase reporter); format: cell-based
T2 construct: excision of full-length rat Bridge-1 cDNA from the previously reported Gal4-Bridge-1 (pM-Bridge-1) vector; expressed in transfected cells; host or cells: BHK cells (BHK-21 C-13), transient transfection
T2 sequence (Q9WTV5 with tags, fused parts or gaps): as the sequence (P04386+Q9WTV5 fused) above
Procedure: FIG. 17 (a-d). The coactivator Bridge-1 interacts with multiple domains of p300. (a) Trichostatin A increases transcriptional activation by Bridge-1. BHK cells were transfected in duplicate with 1.5 μg Gal4-Bridge-1 or empty Gal4 expression vector, 3.25 μg pBluescript, and 250 ng of a Gal4-luciferase reporter and treated with vehicle (0), 2, or 4 ng/mL trichostatin A for 24 hours. Results shown are the mean+/−SEM relative luciferase activity of Gal4-Bridge-1 normalized to the empty Gal4 expression vector (n=3-5 transfections). (b) p300 increases the transcriptional activation by Bridge-1. BHK cells were transfected in duplicate with 0-3 μg of the p300 expression vector pCMV-p300 and 0.5 μg Gal4-Bridge-1 or empty Gal4 expression vector and 1 μg of a Gal4-CAT reporter. pBluescript was used to normalize the total DNA content for all conditions. Data shown are the mean of two transfections. (c) Bridge-1 directly interacts with p300. GST-Bridge-1 or GST control proteins were incubated with in vitro translated, radiolabeled [^35S]-p300 in GST protein interaction assays. A representative autoradiogram is shown of an SDS polyacrylamide gel from a GST pull-down protein interaction assay with the migration position of [^35S]-p300 designated (arrow). (d) Bridge-1 interacts with multiple domains within p300. […]
Various compounds were assayed for their ability to activate or inhibit Bridge-1 transactivation function. In these experiments, the transactivation assay previously described (Thomas, M. K. et al., Mol. Cell. Biol. 19(12):8492-8504 (1999)) incorporated herein by reference) was used with the modification that the plasmid reporter was a Gal4 luciferase reporter with luciferase activity measured rather than the Gal4CAT reporter used in 1999. […]
as §1

PDX-1 Bait = target: T3, PDX-1 Bait (Rattus norvegicus, UniProt P52947); experiment: Semiquantitative yeast two-hybrid interaction trap assay; format: binding; design: key: ++: growth on leucine dropout plates and intense blue colonies on X-gal plates; −: no growh on leucine dropout plates and white colonies on X-gal plates; settings: LexA-rat PDX-1 amino acids 160-283 bait, LEU2 and lacZ reporters
T3 construct: A LexA-rat PDX-1 bait fusion protein construct consisting of PDX-1 amino acids 160-283 cloned in the vector pEG202; expressed in transfected cells
T3 sequence (P52947 160-283): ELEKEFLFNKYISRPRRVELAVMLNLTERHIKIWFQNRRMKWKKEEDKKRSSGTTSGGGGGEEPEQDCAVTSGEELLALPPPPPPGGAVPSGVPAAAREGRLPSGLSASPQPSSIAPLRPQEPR
Procedure: Yeast interaction trap assays. Semiquantitative yeast two-hybrid interaction trap assays were conducted as previously reported (Golemis et al., 1994; Thomas et al., 1999). A LexA-rat PDX-1 bait fusion protein construct consisting of PDX-1 amino acids 160-283 cloned in the vector pEG202 and an acidic domain-rat Bridge-1 fusion protein construct cloned in the vector pJG4-5 were independently tested for activation of LexA operator-responsive LEU2 or β-galactosidase (lacZ) reporters in yeast. Interactions of E12 with rat Twist and rat inhibitor of differentiation-3 (Id3) proteins were used as positive controls and interactions of Bridge-1 with the human interleukin-1 receptor or D. melanogaster bicoid proteins were used as negative controls for the assays (Thomas et al., 1999). Fusion protein interactions were measured independently by growth on leucine dropout plates as a measure of LEU reporter activation or by blue color intensity with growth for 72 hours at 30° C. on X-Gal (5-bromo-4-chloro-3-indoyl-β-D-galactopyranoside) plates as a measure of lacZ reporter activation.
We assessed whether Bridge-1 interacts with PDX-1 in a yeast two-hybrid interaction trap system. […] Thus the rat Bridge-1 protein interacts with a carboxy-terminal PDX-1 protein fragment in yeast cells.

[2] = Gal4-luciferase reporter, 24 hours incubation, vs vehicle

p300: histone acetyltransferase and nuclear receptor coactivator, expressed from pCMV-p300 vector
increase of reporter activation by Gal4-Bridge-1 (Gal4-Bridge-1): over 70 fold

Activin A
activation of Bridge-1 transactivation function [1, 2]: 2.34 fold

CC(=O)[C@H]1CC[C@H]2[C@@H]3CCC4=CC(=O)CC[C@]4(C)[C@H]3CC[C@]12C [Progesterone]
inhibition of Bridge-1 transactivation function [1, 2]: 22%

CC(/C=C/C(=O)NO)=C\[C@@H](C)C(=O)c1ccc(N(C)C)cc1 [Trichostatin A]
effect on transcriptional activation by Bridge-1 ([1]; 2 or 4 ng/mL for 24 hours): increased the transcriptional activation by Bridge-1 in a dose-dependent manner
activation of Bridge-1 transactivation function [1, 2]: 2.7 fold

B1: Twist: rat Twist protein, control in yeast interaction trap assay (protein)
chain: MMQDVSSSPVSPADDSLSNSEEEPDRQQPASGKRGARKRRSSRRSAGGSAGPGGATGGGIGGGDEPGSPAQGKRGKKSAGGGGGAGGGGGGGGSSSGGGSPQSYEELQTQRVMANVRERQRTQSLNEAFAALRKIIPTLPSDKLSKIQTLKLAARYIDFLYQVLQSDELDSKMASCSYVAHERLSYAFSVWRMEGAWSMSASH
Interaction with PDX-1 Bait (PDX-1 Bait): −

B2: Bridge-1: rat PDZ-domain transcriptional coactivator, acidic domain fusion in pJG4-5 (protein)
chain: MSSEEVRHRAESSEARAAAVSDIQELMRRKEEIEAQIKANYDVLESQKGIGMNEPLVDCEGYPRADVDLYQVRTARHNIICLQNDHKALMKQVEEALHQLHARDKEKQARDMAEAREEAMNRRLASDSPALPKAFARVNSISPGSPASIAGLQVDDEIVEFGSVNTQNFQSLQNVGTVVQHSEGKPLNVMVIRRGEKHQLRLTPTRWAGKGLLGCNITPLQR
modifications: left off: small tags and cut ends
Interaction with PDX-1 Bait (PDX-1 Bait): ++

B3: Id3: rat inhibitor of differentiation-3 protein, control in yeast interaction trap assay (protein)
chain: MKALSPVRGCYEAVCCLSERSLAIARGRGKSPSAEEPLSLLDDMNHCYSRLRELVPGVPRGTQLSQVEILQRVIDYILDLQVVLAEPAPGPPDGPHLPIQTAELTPELVISKDKRSFCH
Interaction with PDX-1 Bait (PDX-1 Bait): −
